From patent US20250340658A1 (TWIST BIOSCIENCE, published 2025)
Like-named read-outs stand apart in the source and are kept apart here.

B1: GLP1R-3 (antibody, human IgG2, lambda, V domains shown)
VH: QVQLVESGGGVVQPGRSLRLSCAASGFTFSSYGMHWVRQAPGKGLEWVSFISYDESNKYYADSVKGRFTISRDNSKNTLYLQMNSLRAEDTAVYYCAKHMSMQEGAVTGEGQAAKEFIAWLVKGRVRADLVGDAFDVWGQGTLVTVSS
VL: QSVLTQPPSVSAAPGQKVTISCSGSSSNIADNYVSWYQQLPGTAPKLLIYDNNKRPSGIPDRFSGSKSGTSATLGITGLQTGDEADYYCGTWDNYLGAGVFGGGTKLTVLG
notes: full length human IgG2; also called GLP1R01-3
B2: GLP1R-222-052 (antibody, V domains shown)
VH: QVQLVESGGGVVQPGRSLRLSCAASGFTFNNYPMHWVRQAPGKGLEWVAVISYDESNKYYADSVKGRFTISRDNSKNTLYLQMNSLRAEDTAVYYCAKHMSMQEGAVTGGGQAAKEFIAWLVKGRVRADLVGDAFDVWGQGTLVTVSS
VL: QSVLTQPPSVSAAPGQKVTISCSGSSSNIGKRSVSWYQQLPGTAPKLLIYDNNKRASGIPDRFSGSKSGTSATLGITGLQTGDEADYYCVTWDRSLSAGVFGGGTKLTVL
notes: IgG
B3: GLP1R-222-023 (antibody, V domains shown)
VH: QVQLVESGGGVVQPGRSLRLSCAASGFSFSDYGMHWVRQAPGKGLEWVAFISYDANNKYYADSVKGRFTISRDNSKNTLYLQMNSLRAEDTAVYYCAKHMSMQEGAVTGEWQAAKEFIAWLVKGRVRADLVGDAFDVWGQGTLVTVSS
VL: QSVLTQPPSVSAAPGQKVTISCSGSSSNIGNNDVSWYQQLPGTAPKLLIYENTKRPSGIPDRFSGSKSGTSATLGITGLQTGDEADYYCGTWDAGLSTGVFGGGTKLTVL
notes: IgG
B4: GLP1R-222-090 (antibody, V domains shown)
VH: QVQLVESGGGVVQPGRSLRLSCAASGFSFSDYGIHWVRQAPGKGLEWVALISYEGSNKYYADSVKGRFTISRDNSKNTLYLQMNSLRAEDTAVYYCAKHMSMQEGAVTGEKQAAKEFIAWLVKGRVRADLVGDAFDVWGQGTLVTVSS
VL: QSVLTQPPSVSAAPGQKVTISCSGSSSNIADNYVSWYQQLPGTAPKLLIYDNNKRASGIPDRFSGSKSGTSATLGITGLQTGDEADYYCATWDNRLSAGVFGGGTKLTVL
notes: IgG
B5: GLP1R-222-082 (antibody, V domains shown)
VH: QVQLVESGGGVVQPGRSLRLSCAASGFTFSAYSMHWVRQAPGKGLEWVALISYDATNKYYADSVKGRFTISRDNSKNTLYLQMNSLRAEDTAVYYCAKHMSMQEGAVTGEFQAAKEFIAWLVKGRVRADLVGDAFDVWGQGTLVTVSS
VL: QSVLTQPPSVSAAPGQKVTISCSGSSSNIGSKYVSWYQQLPGTAPKLLIYDNNKRPSGIPDRFSGSKSGTSATLGITGLQTGDEADYYCGTWDISPSAWVFGGGTKLTVL
notes: IgG
B6: GLP1R-222-014 (antibody, V domains shown)
VH: QVQLVESGGGVVQPGRSLRLSCAASGFAFSNYGMHWVRQAPGKGLEWVSFISYDESNKYYADSVKGRFTISRDNSKNTLYLQMNNLRAEDTAVYYCAKHMSMQEGAVTGEWQAAKEFIAWLVKGRVRADLVGDAFDVWGQGTLVTVSS
VL: QSVLTQPPSVSAAPGQKVTISCSGSSSNIGNHDVSWYQQLPGTAPKLLIYDNNKRHSGIPDRFSGSKSGTSATLGITGLQTGDEADYYCGTWDTSLSAGVFGGGTKLTVL
notes: IgG
B7: GLP1R-222-081 (antibody, V domains shown)
VH: QVQLVESGGGVVQPGRSLRLSCAASGFTFDNYALHWVRQAPGKGLEWVALISYDAGNKYYADSVKGRFTISRDNSKNTLYLQMNSLRAEDTAVYYCAKHMSMQEGAVTGEGQAAKEFIAWLVKGFVRADLVGDAFDVWGQGTLVTVSS
VL: QSVLTQPPSVSAAPGQKVTISCSGSSSNIGSDYVSWYQQLPGTAPKLLIYDNNKRSSGIPDRFSGSKSGTSATLGITGLQTGDEADYYCGTWDESLRSWVFGGGTKLTVL
notes: IgG
B8: GLP1R-222-012 (antibody, V domains shown)
VH: QVQLVESGGGVVQPGRSLRLSCAASGFTFNNYGMHWVRQAPGKGLEWVAVISDEGSNKYYADSVKGRFTISRDNSKNTLYLQMNSLRAEDTAVYYCAKHMSMQEGAVTGVGQAAKEFIAWLVKGRVRADLVGDAFDVWGQGTLVTVSS
VL: QSVLTQPPSVSAAPGQKVTISCSGSSSNIGNNDVSWYQQLPGTAPKLLIYDDDKRPSGIPDRFSGSKSGTSATLGITGLQTGDEADYYCGTWDTSLSVGEFGGGTKLTVL
notes: IgG

What was measured:
[1] = biological target: T1, full length human GLP-1R with N-terminal FLAG tag and C-terminal GFP tag, on CHO cells (human, UniProt P43220 24-463); test: flow cytometry, GLP1R-expressing CHO cells
T1 construct: whole, on cells; the cell line itself is tied to UniProt P43220; also called FLAG-GLP-1R-GFP; CHO-GLP-1R
Procedure: (§1) GLP-1R IgG clones were tested in a binding assay coupled to flow cytometry analysis as follows: FLAG-GLP-1R-GFP expressing CHO cells (CHO-GLP-1R) and CHO-parent cells were incubated with 100 nM IgG for 1 h on ice, washed three times and incubated with Alexa 647 conjugated goat-anti-human antibody (1:200) (Jackson ImmunoResearch Laboratories, 109-605-044) for 30 min on ice, followed by three washes, centrifuging to pellet the cells between each washing step. All incubations and washes were in buffer containing PBS+1% BSA. […] Cells were analyzed by flow cytometry and hits (a hit is an IgG that specifically binds to CHO-GLP-1R) were identified by measuring the GFP signal against the Alexa 647 signal. Flow cytometry data of binding assays with 100 nM IgG are presented as dot plots. Analyses of binding assays with IgG titrations are presented as binding curves plotting IgG concentrations against MFI (mean fluorescence intensity).

[2] = biological target: T1, full length human GLP-1R with …; test: flow cytometry, expressing minus parent CHO cells
Procedure: as §1

[3] = biological target: T1, full length human GLP-1R with …; test: flow cytometry, GLP1R-expressing CHO cells; remark: listed apart in the source
Procedure: as §1

[4] = biological target: T1, full length human GLP-1R with …; test: flow cytometry, expressing vs parent CHO cells
Procedure: as §1

[5] = biological target: T1, full length human GLP-1R with …; test: flow cytometry titration, CHO GLP1R cells
Procedure: as §1

[6] = biological target: T1, full length human GLP-1R with …; test: flow cytometry, expressing vs parent CHO cells; remark: listed apart in the source
Procedure: as §1

[7] = biological target: T1, full length human GLP-1R with …; test: flow cytometry, expressing vs parent CHO cells; remark: listed apart in the source
Procedure: as §1

[8] = biological target: T1, full length human GLP-1R with …; test: flow cytometry titration, CHO GLP1R cells; remark: listed apart in the source
Procedure: as §1

[9] = biological target: T1, full length human GLP-1R with …; test: flow cytometry, expressing minus parent CHO cells; remark: listed apart in the source
Procedure: as §1

[10] = biological target: T1, full length human GLP-1R with …; test: flow cytometry, expressing vs parent CHO cells; remark: listed apart in the source
Procedure: as §1

Row | Binder | Median RL1-H of Expressing Singlets [1] | Subtraction [2] | Median RL1-H of Expressing Singlets [3] | MFI Ratio [4] | Bmax [5] | EC50 [5] | MFI Ratio [6] | MFI Ratio [7] | Bmax [8] | EC50 [8] | Subtraction [9] | MFI Ratio [10]
1 | B1 | 232000 | 224000 | 224000 | 740 | 800000 | 11.5 nM | 993 | 740 | 153000 | 15.4 nM | 232000 | 993
2 | B2 | – | 350000 | 378000 | 13.7 | – | – | – | 13.7 | 228000 | 17.4 nM | – | –
3 | B3 | – | 241000 | 241000 | 778 | – | – | – | 778 | 220000 | 18.4 nM | – | –
4 | B4 | – | 227000 | 227000 | 525 | – | – | – | 525 | 1.08e+06 | – | – | –
5 | B5 | – | 224000 | 224000 | 711 | – | – | – | 711 | 135000 | 11.5 nM | – | –
6 | B6 | – | 237000 | 237000 | 794 | – | – | – | 794 | 213000 | 34.3 nM | – | –
7 | B7 | – | 221000 | 221000 | 850 | – | – | – | 850 | 194000 | 22.5 nM | – | –
8 | B8 | – | 225000 | 225000 | 775 | – | – | – | 775 | 234000 | 23.1 nM | – | –
